Data on two compounds can be found in patent US20170008928A1, “NOVEL PEPTIDES AND PEPTIDE DERIVATIVES AND USES THEREOF” (Novo Nordisk A/S, priority 2015, published 2017).

Series [1] is described as follows: Plasma exposure after the last dose in DIO mini-pigs. It counts as in vivo, Göttingen mini-pigs. Particulars: combination group, liraglutide […]. The protocol:
The CCK derivative was dissolved in the following buffer: 8 mM phosphate, 184 mM propylene glycol, 58 mM phenol, pH 7.4 concentrations ranging from 2000-10000 nmol/mL corresponding to dose volumes ranging from 0.00075-0.001 mL/kg. Liraglutide was dissolved in 8 mM phosphate, 184 mM propylenglycol, 58 mM phenol, pH 8.15 (1600 nmol/mL), dose volume was 0.001 mL/kg and this formulation also served as a vehicle for all 3 treatment groups. Animals were dosed subcutaneously once daily with vehicle, CCK derivative, liraglutide, or liraglutide in combination with the CCK derivative (given as two separate injections in each side of the neck). After the last dose blood samples were obtained in EDTA coated tubes at selected time points for up to 480 hours after dosing. Blood was sampled through central-venous catheters implanted under general anaesthesia after 11 weeks of treatment.
The resulting plasma was pipetted into Micronic tubes on dry ice, and kept at −20° C. until analysed for plasma exposure of liraglutide and the CCK derivative. Plasma content of the CCK derivative was measured using LC-MS method II, as described in Example 93. Plasma content of liraglutide was measured using LOCI (Luminescence Oxygen Channeling Immunoasssay). LOCI is generally described for the determination of insulin by Poulsen and Jensen in Journal of Biomolecular Screening 2007, vol. 12, p. 240-247. The donor beads were coated with streptavidin, while acceptor beads were conjugated with a monoclonal antibody recognising a C-terminal epitope of the peptide. Another monoclonal antibody, specific for the N-terminus, was biotinylated. The three reactants were combined with the analyte and formed a two-sited immuno-complex. Illumination of the complex released singlet oxygen atoms from the donor beads, which were channelled into the acceptor beads and triggered chemiluminescence which was measured in an Envision plate reader. The amount of light was proportional to the concentration of the compound.

The target in series [2] is T1, human cholecystokinin-1 receptor (human, UniProt P32238 1-428).
T1 sequence (looked up): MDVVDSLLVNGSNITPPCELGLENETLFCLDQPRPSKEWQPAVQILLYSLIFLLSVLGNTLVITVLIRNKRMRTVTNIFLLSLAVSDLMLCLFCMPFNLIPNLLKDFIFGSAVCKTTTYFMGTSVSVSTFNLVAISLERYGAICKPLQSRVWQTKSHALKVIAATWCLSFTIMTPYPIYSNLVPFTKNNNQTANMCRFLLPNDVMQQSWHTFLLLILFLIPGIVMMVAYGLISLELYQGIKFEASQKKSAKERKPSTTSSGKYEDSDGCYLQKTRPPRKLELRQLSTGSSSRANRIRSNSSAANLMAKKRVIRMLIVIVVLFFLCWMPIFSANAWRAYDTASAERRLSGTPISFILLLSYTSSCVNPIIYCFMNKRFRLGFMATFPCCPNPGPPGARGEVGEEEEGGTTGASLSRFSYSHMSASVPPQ
Nature of the series: cell-based or functional assay.

The target of series [3] is T2, human cholecystokinin-2 receptor (human, UniProt P32239 1-447).
T2 sequence (looked up): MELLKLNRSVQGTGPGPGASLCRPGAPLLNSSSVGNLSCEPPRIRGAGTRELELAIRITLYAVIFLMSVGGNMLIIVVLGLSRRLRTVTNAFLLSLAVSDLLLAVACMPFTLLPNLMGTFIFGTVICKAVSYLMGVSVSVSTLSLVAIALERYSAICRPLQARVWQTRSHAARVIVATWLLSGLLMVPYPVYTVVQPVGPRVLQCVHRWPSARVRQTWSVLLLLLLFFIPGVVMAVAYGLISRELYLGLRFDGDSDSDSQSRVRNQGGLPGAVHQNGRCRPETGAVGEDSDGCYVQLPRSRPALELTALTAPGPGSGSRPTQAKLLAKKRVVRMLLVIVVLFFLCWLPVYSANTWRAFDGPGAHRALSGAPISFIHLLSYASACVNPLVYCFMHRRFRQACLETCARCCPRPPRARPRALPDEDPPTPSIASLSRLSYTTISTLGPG
Nature of the series: cell-based or functional assay.

In series [4] the target is T1, human cholecystokinin-1 receptor. The series can be described thus: ratio of SPA IC50s, reference CCK-2R.

For the compound `CCCCCCCCCCCCCCCC(=O)N[C@@H](CCC(=O)NCCCC[C@H](NC(=O)[C@H](C)NC(=O)[C@H](C)NC(=O)[C@H](CCC(N)=O)NC(=O)CNC(=O)[C@H](CCC(=O)O)NC(=O)[C@H](CC(C)C)NC(=O)[C@H](Cc1ccc(O)cc1)NC(=O)[C@H](CO)NC(=O)[C@H](CO)NC(=O)[C@@H](NC(=O)[C@H](CC(=O)O)NC(=O)[C@H](CO)NC(=O)[C@@H](NC(=O)[C@H](Cc1ccccc1)NC(=O)[C@@H](NC(=O)CNC(=O)[C@H](CCC(=O)O)NC(=O)[C@H](C)NC(=O)[C@@H](N)Cc1cnc[nH]1)[C@@H](C)O)[C@@H](C)O)C(C)C)C(=O)N[C@@H](CCC(=O)O)C(=O)N[C@@H](Cc1ccccc1)C(=O)N[C@H](C(=O)N[C@@H](C)C(=O)N[C@@H](Cc1c[nH]c2ccccc12)C(=O)N[C@@H](CC(C)C)C(=O)N[C@H](C(=O)N[C@@H](CCCNC(=N)N)C(=O)NCC(=O)N[C@@H](CCCNC(=N)N)C(=O)NCC(=O)O)C(C)C)[C@@H](C)CC)C(=O)O` [Liraglutide, reference compound], in series [1], the “AUCexposure (0-24 h) after last dose, Liraglutide” value is listed as “Liraglutide: 399872 pM*h”.
With “Asp-sTyr-Nle-Gly-Trp-Nle-DMeAsp-1Nal-amide (peptide)”, in series [2], the CCK-1R selectivity (EC50 (CCK-2R)/EC50 (CCK-1R)) was found to be 2100 and the EC50 (CCK-1R) is 0.14 nM. The compound further gave an EC50 (CCK-2R) in series [3] of 290 nM. Moreover, in series [4], the CCK-1R binding selectivity (IC50 (CCK-2R)/IC50 (CCK-1R)) amounted to 84000.
